Data as given in publication PMC9483108.
Like-named read-outs stand apart in the source and are kept apart here.

T1: RPL (Col-0)-His (Arabidopsis thaliana (Col-0), UniProt Q9LZM8 1-575)
T1 sequence: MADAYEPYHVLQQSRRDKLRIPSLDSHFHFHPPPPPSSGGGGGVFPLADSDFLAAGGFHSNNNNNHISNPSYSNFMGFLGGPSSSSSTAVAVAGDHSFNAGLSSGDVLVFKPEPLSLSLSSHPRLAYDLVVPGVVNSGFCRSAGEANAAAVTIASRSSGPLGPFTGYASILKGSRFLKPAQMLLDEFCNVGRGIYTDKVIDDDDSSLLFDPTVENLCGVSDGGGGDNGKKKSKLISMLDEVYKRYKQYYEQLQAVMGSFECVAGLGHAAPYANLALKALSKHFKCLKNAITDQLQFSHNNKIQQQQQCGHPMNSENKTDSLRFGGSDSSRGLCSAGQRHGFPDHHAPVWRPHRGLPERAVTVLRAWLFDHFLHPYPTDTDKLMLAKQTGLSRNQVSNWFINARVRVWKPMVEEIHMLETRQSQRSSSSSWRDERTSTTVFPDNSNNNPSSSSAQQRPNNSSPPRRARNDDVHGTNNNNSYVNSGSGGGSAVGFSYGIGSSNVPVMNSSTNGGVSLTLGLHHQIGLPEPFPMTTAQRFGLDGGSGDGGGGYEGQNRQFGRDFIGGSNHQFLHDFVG


Columns and labels:
[1] = molecular target: T1, RPL (Col-0)-His; assay: EMSA
[2] = molecular target: T1, RPL (Col-0)-His; assay: EMSA; remark: listed apart in the source

Binder | binding result [1] | binding result [2]
GH3.3-m2-65bp (dsDNA) DNA 1: AATCAAAAGAAAAAAAGCTTTTAGTATTGAGTATTGACCGTCGCTATCGGTGACAGGCAGAGTCA DNA 2: TGACTCTGCCTGTCACCGATAGCGACGGTCAATACTCAATACTAAAAGCTTTTTTTCTTTTGATT | binds | 
CHI-m1-65bp (dsDNA) DNA 1: CCATTTTTGTTTTTTGTTTTTTCAGTGACAAACTCACATGGATTTCATTTCAGATTCAGTTAGAT DNA 2: ATCTAACTGAATCTGAAATGAAATCCATGTGAGTTTGTCACTGAAAAAACAAAAAACAAAAATGG |  | binds
CHI-m2-65bp (dsDNA) DNA 1: GCTATTTTTTTTTTTTTTAATTTTATTGATCAATCAACTGAATACTGAATACAAAAGAAAACCTG DNA 2: CAGGTTTTCTTTTGTATTCAGTATTCAGTTGATTGATCAATAAAATTAAAAAAAAAAAAAATAGC |  | binds
GH3.3-m1-65bp (dsDNA) DNA 1: CAAATTGAAAATGTCATTACCACTGATTAAAAAGGAATCAAAAGAAAAAAAGCTTTTAGTATTGA DNA 2: TCAATACTAAAAGCTTTTTTTCTTTTGATTCCTTTTTAATCAGTGGTAATGACATTTTCAATTTG | binds | 
